How the values were obtained:
[1] = molecular target: His-tagged PvBDP1 ankyrin domain (fragment 1-220) (P. vivax); experiment: thermal shift assay
[2] = molecular target: Strep-tagged ACDC domain of PvAP2-I (residues 30-180) (P. vivax); experiment: thermal shift assay

Substance	Tm of the ankyrin domain with peptide at a 1:10 molar ratio (50.0°C alone) [1] [°C]	Tm of the ankyrin domain with peptide at a 1:40 molar ratio (50.0°C alone) [1] [°C]	Tm of the ACDC domain with peptide at a 1:10 molar ratio (61.1°C alone) [2] [°C]	Tm of the ACDC domain with peptide at a 1:40 molar ratio (61.1°C alone) [2] [°C]
synthetic peptide corresponding to the α3 helix of ASAIR of PvAP2-I (residues 280-310)	50.7	51.2		
synthetic peptide corresponding to PvBDP1 BAAS (residues 275-296)			60.1	59.8

Reference: paper doi:10.1101/2025.11.26.690747
